Assay results from paper PMC3017759.
pKd: −log10 of the molar value. Each block holds one substance with its values, some of them ahead of it.

How the values were obtained:
[1] = target: M. musculus (C57BL/6) IL4Rα extracellular domain (M. musculus (C57BL/6)) (UniProt P16382); test: SPR; BIAcore 2000; about 1400 RU of IL4Rα immobilised on a CM5 chip by amine linkage; graded doses of IL4 in the mobile phase; HBS-EP (10 mM HEPES pH 7.4, 150 mM NaCl, 3 mM EDTA, 0.005% P-20); 25°C; flow 3 μl/min; 1:1 Langmuir fit; average of two independent experiments on two chips
Sequence of UniProt P16382 (P16382 26-233): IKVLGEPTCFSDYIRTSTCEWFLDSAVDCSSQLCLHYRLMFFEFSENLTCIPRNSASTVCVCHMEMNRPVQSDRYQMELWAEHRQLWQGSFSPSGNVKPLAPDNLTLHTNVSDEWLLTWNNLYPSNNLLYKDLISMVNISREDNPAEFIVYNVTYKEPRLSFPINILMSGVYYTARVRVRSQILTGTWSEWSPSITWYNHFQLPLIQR

IL4Rα (Homo sapiens) = IL4Rα (Homo sapiens) (UniProt P24394); settings: cited from earlier work
Sequence of UniProt P24394 (P24394 26-232): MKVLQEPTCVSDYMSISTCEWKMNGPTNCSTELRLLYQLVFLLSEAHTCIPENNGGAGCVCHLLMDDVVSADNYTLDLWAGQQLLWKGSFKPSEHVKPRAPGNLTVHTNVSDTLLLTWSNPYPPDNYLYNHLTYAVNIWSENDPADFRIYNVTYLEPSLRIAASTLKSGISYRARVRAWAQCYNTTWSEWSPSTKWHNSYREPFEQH

IL13Rα1 (Homo sapiens) = IL13Rα1 (Homo sapiens) (UniProt P78552); settings: cited from earlier work
Sequence of UniProt P78552 (P78552 22-343): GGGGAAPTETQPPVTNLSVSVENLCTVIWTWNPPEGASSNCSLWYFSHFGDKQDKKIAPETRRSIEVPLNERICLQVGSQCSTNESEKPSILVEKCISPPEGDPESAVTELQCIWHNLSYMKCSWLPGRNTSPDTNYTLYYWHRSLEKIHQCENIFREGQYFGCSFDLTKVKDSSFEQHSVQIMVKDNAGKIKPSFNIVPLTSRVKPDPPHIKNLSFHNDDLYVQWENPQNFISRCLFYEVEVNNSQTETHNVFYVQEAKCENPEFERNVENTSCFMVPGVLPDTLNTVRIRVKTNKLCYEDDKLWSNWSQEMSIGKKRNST

γc (Homo sapiens) = γc (Homo sapiens) (UniProt P31785); settings: cited from earlier work
Sequence of UniProt P31785 (P31785 23-262): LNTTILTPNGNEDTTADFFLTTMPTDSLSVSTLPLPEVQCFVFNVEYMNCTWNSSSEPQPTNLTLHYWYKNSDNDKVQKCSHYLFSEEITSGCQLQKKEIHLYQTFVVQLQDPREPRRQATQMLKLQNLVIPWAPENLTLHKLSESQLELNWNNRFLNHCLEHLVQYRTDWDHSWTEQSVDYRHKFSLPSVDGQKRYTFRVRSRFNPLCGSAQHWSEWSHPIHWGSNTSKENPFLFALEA

Sequence of IL4 (P05112 25-153): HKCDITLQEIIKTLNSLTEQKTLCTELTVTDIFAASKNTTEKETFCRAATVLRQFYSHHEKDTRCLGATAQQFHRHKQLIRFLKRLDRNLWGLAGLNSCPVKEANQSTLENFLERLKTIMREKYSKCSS

- Ka [1]: 4.44e+09 M⁻¹
- pKd [1]: 9.65
- koff [1]: 0.000713 s⁻¹
- kon [1]: 3.16e+06 M⁻¹ s⁻¹
Substance: recombinant CAST/Ei IL4 (interleukin-4, Mus musculus castaneus allotype) (from UniProt P07750 21-140) (ligand)

Substance: IL4 (from UniProt P05112)
- pKd (IL4Rα (Homo sapiens)): 9.00

Substance: IL4/IL4Rα complex (from UniProt P05112)
- pKd (IL13Rα1 (Homo sapiens)): 6.30
- pKd (γc (Homo sapiens)): 6.30
